Data taken from US20240115722A1 (RUTGERS THE STATE UNIVERSITY OF NEW JERSEY, published 2024).

Molecular target: T1, recombinant human EphA5 (rhEphA5) antigen (human, UniProt P54756 25-573)
T1 construct: also called human EphA5 (R and D systems, Cat. No. 3036-A5); recombinant EphA5
Assay: SPR single-cycle kinetics (Biacore T200), IgG from HEK supernatant captured on anti-human IgG CM5 chip, rhEphA5 as analyte, 1:1 fit
Parameters: Relative KD: reference not given here
Procedure: Kinetic analysis was carried out on a Biacore T200. Each antibody was captured on a CM5 chip coupled with an anti-human IgG using standard amine chemistry before increasing concentrations of antigen were injected and a single off-rate was determined.
Kinetic experiments were performed at 25° C. on a Biacore T200 running Biacore T200 Control software V2.0.1 and Evaluation software V3.0 (Cytiva, Uppsala, Sweden).
HBS-P+ (Cytiva, Uppsala, Sweden), supplemented with 1% BSA (Sigma, Dorset, UK) was used as running buffer as well as for ligand and analyte dilutions. Supernatants containing IgG were diluted in running buffer to 1 μg/mL. At the start of each cycle, antibodies were loaded onto Fc2, Fc3 and Fc4 of an anti-human IgG CM5 sensor chip (Cytiva, Little Chalfont, UK). Ig were captured at a flow rate of […] to give an immobilization level (RL) of ˜60 RU. The surface was then allowed to stabilize.

T1 sequence (P54756 25-573 limits assumed): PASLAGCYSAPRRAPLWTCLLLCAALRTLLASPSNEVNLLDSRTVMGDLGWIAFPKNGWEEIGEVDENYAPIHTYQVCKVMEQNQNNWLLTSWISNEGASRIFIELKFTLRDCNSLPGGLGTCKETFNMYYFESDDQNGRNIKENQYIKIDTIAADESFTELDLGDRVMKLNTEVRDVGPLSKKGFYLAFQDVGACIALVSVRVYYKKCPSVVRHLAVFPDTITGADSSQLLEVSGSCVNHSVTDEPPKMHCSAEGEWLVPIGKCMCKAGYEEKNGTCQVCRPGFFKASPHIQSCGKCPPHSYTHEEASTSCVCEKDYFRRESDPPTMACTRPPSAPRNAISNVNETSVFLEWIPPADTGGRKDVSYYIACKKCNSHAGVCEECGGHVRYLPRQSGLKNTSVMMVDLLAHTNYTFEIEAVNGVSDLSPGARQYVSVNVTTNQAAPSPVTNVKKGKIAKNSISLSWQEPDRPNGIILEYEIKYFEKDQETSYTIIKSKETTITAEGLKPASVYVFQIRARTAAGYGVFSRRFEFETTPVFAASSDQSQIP

| Binder | Kd [nM] | Relative KD | koff [s⁻¹] |
| --- | --- | --- | --- |
| VH3/VK2 humanized 11C12 antibody (antibody, human IgG1, kappa, Human IgG1/kappa; tested as HEK293 EBNA supernatant; also called H3K2) heavy: not shown light: DIVMTQSPDSLAVSLGERATINCKASQSVDYDGDSYMNWYQQKPGKAPKLLIYGASNLESGIPDRFSGSGSGTDFTLTISRLEPEDAASYYCQQSNEDPFTFGQGTKLEIKRTVAAPSVFIFPPSDEQLKSGTASVVCLLNNFYPREAKVQWKVDNALQSGNSQESVTEQDSKDSTYSLSSTLTLSKADYEKHKVYACEVTHQGLSSPVTKSFNRGEC | 0.968 | 0.73 | 0.0013 |
| VH1/VK5 humanized 11C12 antibody (antibody, human IgG1, kappa, Human IgG1/kappa; tested as HEK293 EBNA supernatant; also called H1K5) heavy: not shown light: DIVMTQSPDSLAVSLGERATINCKSSQSVDYDGDSYMNWYQQKPGKAPKLLIYGASNLESGIPDRFSGSGSGTDFTLTISRLEPEDAAVYYCQQSNEDPFTFGQGTKLEIKRTVAAPSVFIFPPSDEQLKSGTASVVCLLNNFYPREAKVQWKVDNALQSGNSQESVTEQDSKDSTYSLSSTLTLSKADYEKHKVYACEVTHQGLSSPVTKSFNRGEC | 1.12 | 0.84 | 0.00139 |
| VH0/VK1 (antibody, human IgG1, kappa, V domains shown, tested as HEK supernatant; also called control antibody (chimeric heavy chain with humanized VK1 light chain)) VH: EVTLKESGGGLVQPGGSRKLSCAASGFTFSTFGIHWVRQAPEKGLEWVAYISGASTTIYYADTVKGRFTISRDNPKNTLFLQMTSLRSEDTAMYYCARYGTSFPYGLDYWGQGTSVTVSS VL: DIVMTQSPGSLAVSLGERATINCKASQSVDYDGDSYMNWYQQKPGKAPKLLIYGASNLESGIPDRFSGSGSGTDFTLTISRLEEEDAASYYCQQSNEDPFTFGQGTKLEIKR | 1.12 | 0.84 | 0.00137 |

The next lines start with the values.

| Kd [nM] | Relative KD | koff [s⁻¹] | Binder |
| --- | --- | --- | --- |
| 1.02 | 0.77 | 0.00128 | VH1/VK1 humanized 11C12 antibody (antibody, human IgG1, kappa, Human IgG1/kappa; tested as HEK293 EBNA supernatant; also called H1K1) heavy: not shown light: DIVMTQSPGSLAVSLGERATINCKASQSVDYDGDSYMNWYQQKPGKAPKLLIYGASNLESGIPDRFSGSGSGTDFTLTISRLEEEDAASYYCQQSNEDPFTFGQGTKLEIKRTVAAPSVFIFPPSDEQLKSGTASVVCLLNNFYPREAKVQWKVDNALQSGNSQESVTEQDSKDSTYSLSSTLTLSKADYEKHKVYACEVTHQGLSSPVTKSFNRGEC |
| 1.1 | 0.83 | 0.00137 | VH1/VK4 humanized 11C12 antibody (antibody, human IgG1, kappa, Human IgG1/kappa; tested as HEK293 EBNA supernatant; also called H1K4) heavy: not shown light: DIVMTQSPDSLAVSLGERATINCKSSQSVDYDGDSYMNWYQQKPGKAPKLLIYGASNLESGIPDRFSGSGSGTDFTLTISRLEPEDAASYYCQQSNEDPFTFGQGTKLEIKRTVAAPSVFIFPPSDEQLKSGTASVVCLLNNFYPREAKVQWKVDNALQSGNSQESVTEQDSKDSTYSLSSTLTLSKADYEKHKVYACEVTHQGLSSPVTKSFNRGEC |
| 0.89 | 0.67 | 0.0012 | VH2/VK1 humanized 11C12 antibody (antibody, human IgG1, kappa, Human IgG1/kappa; tested as HEK293 EBNA supernatant; also called H2K1) heavy: not shown light: DIVMTQSPGSLAVSLGERATINCKASQSVDYDGDSYMNWYQQKPGKAPKLLIYGASNLESGIPDRFSGSGSGTDFTLTISRLEEEDAASYYCQQSNEDPFTFGQGTKLEIKRTVAAPSVFIFPPSDEQLKSGTASVVCLLNNFYPREAKVQWKVDNALQSGNSQESVTEQDSKDSTYSLSSTLTLSKADYEKHKVYACEVTHQGLSSPVTKSFNRGEC |
| 0.948 | 0.71 | 0.00125 | VH1/VK3 humanized 11C12 antibody (antibody, human IgG1, kappa, Human IgG1/kappa; tested as HEK293 EBNA supernatant; also called H1K3) heavy: not shown light: DIVMTQSPDSLAVSLGERATINCKASQSVDYDGDSYMNWYQQKPGKAPKLLIYGASNLESGIPDRFSGSGSGTDFTLTISRLEPEDAAVYYCQQSNEDPFTFGQGTKLEIKRTVAAPSVFIFPPSDEQLKSGTASVVCLLNNFYPREAKVQWKVDNALQSGNSQESVTEQDSKDSTYSLSSTLTLSKADYEKHKVYACEVTHQGLSSPVTKSFNRGEC |
| 0.968 | 0.73 | 0.00126 | VH1/VK2 humanized 11C12 antibody (antibody, human IgG1, kappa, Human IgG1/kappa; tested as HEK293 EBNA supernatant; also called H1K2) heavy: not shown light: DIVMTQSPDSLAVSLGERATINCKASQSVDYDGDSYMNWYQQKPGKAPKLLIYGASNLESGIPDRFSGSGSGTDFTLTISRLEPEDAASYYCQQSNEDPFTFGQGTKLEIKRTVAAPSVFIFPPSDEQLKSGTASVVCLLNNFYPREAKVQWKVDNALQSGNSQESVTEQDSKDSTYSLSSTLTLSKADYEKHKVYACEVTHQGLSSPVTKSFNRGEC |
